Source: PMC6769508

Experiments:
[1] = molecular target: SyKaiBDD, SyKaiB with Arg22 and Lys25 substituted with aspartate residues (Synechococcus elongatus PCC 7942) (UniProt Q79PF5)
[2] = molecular target: SyKaiB, wild-type KaiB of Synechococcus elongatus PCC 7942 (Synechococcus elongatus PCC 7942) (UniProt Q79PF5)

Row | Binder | period of the in vitro oscillation of the phosphorylated KaiC level (SyKaiA 1.5 µM, SyKaiC 3.4 µM, SyKaiBDD 4.2 µM, 30 °C) [1] | period of the in vitro oscillation of the phosphorylated KaiC level (SyKaiA 1.5 µM, SyKaiC 3.4 µM, SyKaiBWT 4.2 µM, 30 °C) [2]
1 | SyKaiBDD, SyKaiB with Arg22 and Lys25 substituted with aspartate residues (natural protein) MSPRKTYILKLYVAGNTPNSVDALDTLKNILEVEFQGVYALKVIDVLKNPQLAEEDKILATPTLAKVLPLPVRRIIGDLSDREKVLIGLDLLYGELQDSDDF | 30.4 h | –
2 | SyKaiB, wild-type KaiB of Synechococcus elongatus PCC 7942 (natural protein) MSPRKTYILKLYVAGNTPNSVRALKTLKNILEVEFQGVYALKVIDVLKNPQLAEEDKILATPTLAKVLPLPVRRIIGDLSDREKVLIGLDLLYGELQDSDDF | – | 23.2 h
